This is an account of results in patent publication US20140079713A1.

For the test, the target named is PTCH1-GFP (mouse) (UniProt Q61115). As to the kind of experiment: cell surface binding of BOC-Fc proteins to COS7 cells expressing PTCH1-GFP, anti-Fc HRP.
UniProt Q61115, sequence (Q61115 whole entry): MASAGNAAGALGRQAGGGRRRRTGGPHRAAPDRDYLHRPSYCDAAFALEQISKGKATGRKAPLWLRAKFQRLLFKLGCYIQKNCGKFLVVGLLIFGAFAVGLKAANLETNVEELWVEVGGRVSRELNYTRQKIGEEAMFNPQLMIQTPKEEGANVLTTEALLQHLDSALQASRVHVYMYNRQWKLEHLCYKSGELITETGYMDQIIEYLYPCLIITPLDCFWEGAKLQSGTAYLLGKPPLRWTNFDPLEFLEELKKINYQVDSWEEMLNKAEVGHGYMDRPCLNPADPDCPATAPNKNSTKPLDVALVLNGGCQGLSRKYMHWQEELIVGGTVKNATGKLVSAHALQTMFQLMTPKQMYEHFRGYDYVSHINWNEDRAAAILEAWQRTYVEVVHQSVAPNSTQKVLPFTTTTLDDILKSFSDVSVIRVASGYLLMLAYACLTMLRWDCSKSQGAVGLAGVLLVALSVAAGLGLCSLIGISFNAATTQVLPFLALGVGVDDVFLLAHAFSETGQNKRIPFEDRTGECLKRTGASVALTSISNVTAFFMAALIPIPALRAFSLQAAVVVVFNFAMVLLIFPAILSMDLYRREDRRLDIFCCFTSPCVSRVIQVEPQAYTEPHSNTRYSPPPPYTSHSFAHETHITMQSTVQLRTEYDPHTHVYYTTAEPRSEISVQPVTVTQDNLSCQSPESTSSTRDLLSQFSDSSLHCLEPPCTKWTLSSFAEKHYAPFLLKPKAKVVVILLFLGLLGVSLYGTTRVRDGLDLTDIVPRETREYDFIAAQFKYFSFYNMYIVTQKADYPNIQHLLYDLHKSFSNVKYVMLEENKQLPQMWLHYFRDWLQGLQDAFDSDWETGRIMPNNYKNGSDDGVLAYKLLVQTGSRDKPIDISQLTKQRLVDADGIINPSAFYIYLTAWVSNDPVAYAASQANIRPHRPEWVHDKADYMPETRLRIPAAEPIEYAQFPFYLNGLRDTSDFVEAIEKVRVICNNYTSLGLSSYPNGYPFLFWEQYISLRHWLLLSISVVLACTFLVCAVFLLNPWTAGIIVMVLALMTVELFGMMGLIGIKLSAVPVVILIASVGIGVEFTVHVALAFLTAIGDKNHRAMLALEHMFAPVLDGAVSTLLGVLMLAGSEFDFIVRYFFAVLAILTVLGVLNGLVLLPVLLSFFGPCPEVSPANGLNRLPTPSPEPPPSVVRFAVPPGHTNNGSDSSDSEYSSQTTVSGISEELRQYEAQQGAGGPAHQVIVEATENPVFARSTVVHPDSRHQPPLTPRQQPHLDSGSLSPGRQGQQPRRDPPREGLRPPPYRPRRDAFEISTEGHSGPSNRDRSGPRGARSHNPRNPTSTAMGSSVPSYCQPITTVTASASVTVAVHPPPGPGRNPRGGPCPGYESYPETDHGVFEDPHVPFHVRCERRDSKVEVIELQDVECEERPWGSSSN

Turning to “BOC-Fc construct containing the FNIIIa domain alone (Fc fusion)”, the binding level relative to BOC ecto-Fc stood at 60%.

The substance “BOC-Fc construct containing the FNIIIb domain alone (Fc fusion)” registered a binding level relative to BOC ecto-Fc of 60%.
